Data taken from US20070196883A1, “ENZYME” (UNIVERSITY OF DUNDEE, priority 1999, published 2007).

Tests used:
His-PDK1 = molecular target: T1, His-PDK1 (Homo sapiens, UniProt O15530); assay: Conversion of His-PDK1 into a Ser473 PKBα kinase by synthetic peptide (P-Ser473 immunoblot); type: biochemical; settings: peptide at 20 µM, 3-phosphoinositide vesicles, MgATP
T1 construct: made in house; host or cells: Sf21 insect cells (baculovirus, pFASTBAC HTb)
T1 sequence (O15530 1-556): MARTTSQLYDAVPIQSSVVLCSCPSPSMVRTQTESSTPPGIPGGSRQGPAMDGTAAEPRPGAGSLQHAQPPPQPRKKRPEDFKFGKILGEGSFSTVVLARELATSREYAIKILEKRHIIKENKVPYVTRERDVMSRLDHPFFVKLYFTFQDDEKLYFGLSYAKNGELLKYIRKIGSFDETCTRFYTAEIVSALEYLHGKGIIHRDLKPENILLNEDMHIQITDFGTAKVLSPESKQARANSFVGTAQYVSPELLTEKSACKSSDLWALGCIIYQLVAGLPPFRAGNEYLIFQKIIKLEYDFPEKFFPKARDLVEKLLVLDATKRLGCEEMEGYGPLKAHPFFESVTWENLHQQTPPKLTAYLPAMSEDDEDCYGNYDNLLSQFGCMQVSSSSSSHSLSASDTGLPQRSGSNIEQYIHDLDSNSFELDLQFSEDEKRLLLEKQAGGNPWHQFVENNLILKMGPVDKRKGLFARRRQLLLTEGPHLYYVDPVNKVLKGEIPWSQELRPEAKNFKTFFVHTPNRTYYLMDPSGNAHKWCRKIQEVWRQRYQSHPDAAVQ
Procedure: FIG. 6. Conversion of PDK1 into an enzyme that can phosphorylate both Thr308 and Ser473 of PKB by addition of a synthetic peptide. […] After allowing to stand for 1 h at 4° C. GST-PKBα, MgATP and the indicated phospholipid vesicles containing 100 μM PtdCho, 100 μM PtdSer, and either 10 μM sn-1-stearoyl-2-arachidonoyl-D-PtdIns(3,4,5)P3 (1,2-SAD-PtdIns(3,4,5)P3), or sn-1,2 di-palmitoyl-D-PtdIns(3,4,5)P3 (C16-PtdIns(3,4,5)P3) or sn-1,2 di-palmitoyl-D-PtdIns(3,4)P2 (C16-PtdIns(3,4)P2) were added. After 1 h at 30° C., the reactions were terminated by making the solutions 1% in SDS, the samples were subjected to SDS/polyacylamide gel electrophoresis and immunoblotted using P-Ser473 antibody. Identical results were obtained in 2 separate experiments. […]
Phosphorylation of GST-PKBα by incubation with GST-PIF. In experiments in which the phosphorylation of PKBα was determined using the phospho-specific Ser473 PKBα antibodies, the incubations were identical to the Stage 1 described above except that the reactions were terminated by the addition of 1% (by mass) SDS and immunoblotting is carried out as described below. In experiments in which the sites of phosphorylation on PKBα are determined the incubations were identical to the Stage 1 described above except [γ^32P] […]

[1] = molecular target: T2, endogenous PDK1 associated with GST-PIF (Homo sapiens, UniProt O15530); assay: Dissociation of endogenous PDK1 from purified GST-PIF by peptide; type: binding; settings: peptide 100 μM, GST-PIF purified from 293 cells
T2 construct: endogenous in cells; host or cells: 293 cells transfected with pEBG2T GST-PIF; endogenous PDK1 co-purified on glutathione-Sepharose
Text: In contrast, a mutant peptide in which the residue corresponding to Asp978 was changed to Ala (termed “D978A-Region B peptide”) interacted with PDK1>fold 10-less strongly (FIG. 13).

T2 sequence (Q16513 908-984 partner limits assumed, one chain of several): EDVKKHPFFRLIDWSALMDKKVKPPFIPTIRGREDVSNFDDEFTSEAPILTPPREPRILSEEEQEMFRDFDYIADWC

inducing His-PDK1 to phosphorylate PKBα at Ser473 (His-PDK1): far less effective | dissociation of the endogenous PDK1 from GST-PIF [1]: incapable of inducing the dissociation
Substance: D978A-Region B peptide: mutant peptide in which the residue corresponding to Asp978 was changed to Ala (REPRILSEEEQEMFRDFAYIADWC)
